{"source": "paper PMC6987408", "about": "“Structural Insights Into the Transcriptional Regulation of HigBA Toxin–Antitoxin System by Antitoxin HigA in Pseudomonas aeruginosa” (Frontiers in Microbiology, 2019)", "molecules": {"B1": {"name": "PhigBA 18-bp duplex (dsDNA)", "DNA 1": "ACGCTTAACGTTAAGGGT", "DNA 2": "ACCCTTAACGTTAAGCGT"}, "B2": {"name": "PaHigA (Pseudomonas aeruginosa antitoxin HigA) (natural protein, Pseudomonas aeruginosa PAO1, UniProt Q9HVC1 1-101, looked up)", "chain": "MATNGMRPIHPGEILRDEFLMEFDISPAALARALKVSAPTVNDIVREQRGISADMAIRLGRYFDTSAQFWMNLQSEYSLATAYAANGKQIEHEIEPLLAHG", "notes": "Antitoxin HigA of P. aeruginosa PAO1, gene higA (PA4674), full length amplified from the PAO1 genome; Cloned NcoI/BamHI into pET28b with a C-terminal His tag; the construct comes from Guo et al., 2019; also called PaHigA-His; apo PaHigA; source: E. coli BL21(DE3) pLysS, purified (nickel-nitrilotriacetic acid resin, gel filtration on Superdex 200); not shown: His6, C-terminal, kept"}}, "key": {"[1]": {"target": "PaHigA (Pseudomonas aeruginosa PAO1) (UniProt Q9HVC1)", "test": "ITC", "details": "ITC: 20 mM Tris pH 8.0, 100 mM NaCl, 5% glycerol, 20 C, 400 uM DNA into 100 uM PaHigA; EMSA: DNA annealed in 10 mM NaCl, 20 mM Tris pH 8.0, 30 min at room …"}, "[2]": {"target": "PaHigA (Pseudomonas aeruginosa PAO1, UniProt Q9HVC1 1-101)", "test": "crystal structure; 2.50 A; water-mediated contacts; ITC: 20 mM Tris pH 8.0, 100 mM NaCl, 5% glycerol, 20 C, 400 uM DNA into 100 uM PaHigA; EMSA: DNA annealed in 10 mM NaCl, 20 mM Tris pH 8.0, 30 min at room temperature, 5% native gel at 20 C", "details": "protein: recombinant; tags: C-terminal His6; chain copies: 4"}, "[3]": {"target": "the molecule itself", "test": "SAXS; apo PaHigA in solution at 1, 3 and 5 mg/ml, 22°C; oligomeric state from the fit to the dimer's theoretical curve and from the calculated molecular mass"}}, "data": [{"molecule": "PhigBA 28-bp duplex", "values": [{"measurement": "Ka", "setting": "[1]", "result": "7.5e+13", "unit": "M^-2"}]}, {"molecule": "B1", "values": [{"measurement": "binding result", "setting": "[2]", "result": "binds"}]}, {"molecule": "B2", "values": [{"measurement": "stoichiometry N", "setting": "[3]", "result": 2}]}]}
